Source: patent US20250034594A1, “RNA-GUIDED GENOME RECOMBINEERING AT KILOBASE SCALE” (THE BOARD OF TRUSTEES OF THE LELAND STANFORD JUNIOR …, priority 2021, published 2025)

B1: SSAP_67: SEQ ID NO: 236 (protein)
chain: TSQQLDTTHTINQQVTTFRHTLVQMKNEIAAALPAHMTGDRFLRLILTEVRKNPELAECSTESIFGGILTAAALGLEPGLNGECWLIPRKVGKGPGSRKEATFQVGYKGIIKLFWQNPLASYLDTGVVYANDAWKFRKGLDPILEHTPATGDRGAVRGYYAVVGLTTGARIFDFFTPKQISALRGTAGPNGGISDPEHWMERKTALLQVMKMAPKSTDLASAASVDGTVQTVEAAAQVAAASTGPVNPTTGEVLEAEPVEGGAA
B2: SSAP_10: SEQ ID NO: 179; Bet Escherichia coli (protein, listed as Escherichia coli)
chain: STALATLAGKLAERVGMDSVDPQELITTLRQTAFKGDASDAQFIALLIVANQYGLNPWTKEIYAFPDKQNGIVPVVGVDGWSRIINENQQFDGMDFEQDNESCTCRIYRKDRNHPICVTEWMDECRREPFKTREGREITGPWQSHPKRMLRHKAMIQCARLAFGFAGIYDKDEAERIVENTAYTAERQPERDITPVNNETMQEINTLLIALDKTWDDDLLPLCSQIFRRDIRASSELTQAEAVKALGFLKQKATEQKVAA
B3: SSAP_152: SEQ ID NO: 321; Clostridiaceae bacterium (protein, listed as Clostridiaceae bacterium)
chain: SNLKKALKTNETKGNSVTVSKAYAMKQLMIKMKGEITSALPTNLSSERFEKVALTAFNSNPKLQKCDPRTFIAAMMQSAQLGLEPNTALGLAYLIPYEVKGINKVQFQIGYKGLLELANRSGKLKTLYAHEVRENDEFDIDYGLEQKLIHKPLLKGNRGNVIGYYAVYHLEPSGYNFVFMTYDEVLEHGKKYSKSFEGGVWEKEFDSMAKKTVIKKLLKYAPLSIEMQKAIVFDESVKGSIDSDMLLVDKEDESIEGSELN
B4: SSAP_29: SEQ ID NO: 198 (protein)
chain: STALATLAGKLAERVGMDSVDPQELITTLRQTAFKGDASDAQFIALLIVANQYGLNPWTKEIYAFPDKQNGIVPVVGVDGWSRIINENQQFDGMDFEQDDESCTCRIYRKDRNHPICVTEWMDECRRAPFKTREGREITGPWQSHPKRMLRHKAMIQCARLAFGFAGIYDKDEAERIVENTAYTTERQPERDITPVNEETMSEINALLTSMEKTWDDDLLPLCSQIFRRYIRASSELSQAEAEKVLGFLKQKATEQKVAA
B5: SSAP_239: SEQ ID NO: 408; Paenibacillus polymyxa (protein, listed as Paenibacillus polymyxa)
chain: PDKLLVIHDNLNKMLDEKSEAMPTSFNKTRFLQNCMAVLQDTKDIEQCDAKSVARTMLKGAFLGLDFFNKECYAIPYNENIGTKNKPRWIKSLQFQTDYKGEKKLAKKYSTRRVKDIYAKLVRDGDDFREEIESGQPTINFRPLPFNDGIIRGAFAVALFEDGGMIYETMSLKEIEKTRDDYSKQSTGKAWTKSPGEMYKKTVLRRLCKNIELDFDTIEQAQAFEDSSDFDMNKELKPQQQSPLNPNTTIIDAEYEEIKEEPADGPEQE
B6: SSAP_218: SEQ ID NO: 387; Streptococcus lutetiensis (protein, listed as Streptococcus lutetiensis)
chain: ANQLQMSHKDFFNRPAVKNKFSEVVSGKSDQFITSLLSVVNNNKLLSKADNNSILNAAMKAATLNLPIEPSLGSAYIVPFKGQAQFQLGYKGLIELAQRSGQYKSINAGVVYKAQFKSYDPLFETLDLDFNQPQDEVIGYFACFELLNGFRKITYWTREEVYNHGKRFSKSFNNGPWKTDFDAMAKKTLLKSIIGTYGPKSVDMQEAITDDNKTEYEKAEPIDVTPQEENLTDLIGETPQEELPIANPETGEIQEEQTALFNQLGDLTDD
B7: SSAP_154: SEQ ID NO: 323; Corynebacterium urealyticum (protein, listed as Corynebacterium urealyticum)
chain: AKNLEARMQQSTNAPARADKPLSLPDQIRQMEDQFRLAMPKGAEATQLVRDALTCLRQTPQLAQCTPASVLGGLMTCAQLGLRPGVLGHAYLIPFNDRRSGNSVAQLVIGYQGLVELAHRSGQIKALIARTVYENDHFDVDYGLEDKLVHKPHMGADKGNPVAYYAVVKFTTGGHAFYVMSHPEMLQYRDKNAKSPKRGPWVDNFEAMAHKTCVRQLAKWMPKSTEFSQALATDESIRLDVTPDAINYPDHPAEGEVIDGEVEQDGGQQ
B8: SSAP_104: SEQ ID NO: 273; Salinicoccus albus (protein, listed as Salinicoccus albus)
chain: STNESLKNQVATNQKNEVSNGNKPKTIGDYIDQMAPAMAQALPKHMSVERMTRMATTVIRTTPQLKEADVASLLGAVMQSAQLGLEPGPMGHCYFLPFKNNKKGTTEVTFIIGYKGMIDLARRSGHISTIYAHAVYENDEFEYELGLHADLKHKPSEDERGAFKGAYAVAHFKDGGYQFEYMPKSDIDKRRSRSKAGNSNYSPWATDYEEMAKKTVIRHMWKYLPVSVEMQQAVAHDEGTGKDIKDVTPDEDSFVDMPEYIADVPAEGEGE
B9: SSAP_64: SEQ ID NO: 233 (protein)
chain: SELQQAAQGQQSNNPVSFIYSHAKDIQNVLTKGTDMDRWLQMARLAVMRDQNLVASAKRDPGSLMQALLDCAEKGHVPGTEDYYLVPRKGGIQGMESWKGIAKRIMRSGRYQSIVNEVVYEGETFEFNPNTMDRPVHNINYMTRTSGKPVMSYAYALDHDGKPSSVAIADPRYIAKVKKNSRGSVWEDWDEQMYRKTAVKMLQDYVDTSSVDRRDVSTVQVDDANVIDVDDTFTAREAGE
B10: SSAP_98: SEQ ID NO: 267; Pseudomonas fluorescens (protein, listed as Pseudomonas fluorescens)
chain: NSTAETATPFSSQDLEKTQPTKAQSKTGSLASLLASPKMKSQFAAALPKHMTPERMARIVTTEIRKNPELVKCEQHSFLGAVIQCAQLGLEPGNTLGHAYILPYGKQAQLIIGYRGMIDLARRSGQIISISARTVREGDYFEYEFGLDENLIHRPVETTQPGAVTHVYAVARLKDGGRQFEVMSRAQIEEVRVQSKAAKSGPWVTHWEEMAKKTVIRRVFKYLPVSVEIQRAVMLDEKAEAGVCQENECVFDGDFEVITDTEE
B11: SSAP_23: SEQ ID NO: 192 (protein)
chain: TNNQLATQIKRDITTDPSLLTGADIKKYFDPQNLLTEKQVGQALALCKGRNLNPFANEVYIVAYQNNSGTEFSLIVSKEAFMKRAERCEGYDGFEAGITVMRNGEMIEIEGSLKLPEDILIGGWAVVYRKDRSHRYKVTVDFNEYVKTDRNGNPRSTWKSMPATMIRKTALVQTLREAFPDELGNMYTDIDGGDTFDAIKDVTPQESREDVVARKMAQIDQFNKEQEANHADPEPTQNEDPIQGELLDGELEY
B12: SSAP_30: SEQ ID NO: 199 (protein)
chain: EKPKLIQRFAERFSVDPNKLFDTLKATAFKQRDGSAPTNEQMMALLVVADQYGLNPFTKEIFAFPDKQAGIIPVVGVDGWSRIINQHDQFDGMEFKTSETKVSLDGAKECPEWMECIIYRRDRSHPVKITEYLDEVYRPPFEGNGKNGPYRVDGPWQTHTKRMLRHKSMIQCSRIAFGFVGIFDQDEAERIIEGQATHVVEPSVIPPEQVDDRTRGLVYKLIERAEASNAWNSALEYANEHFQGVELTFAKQEIFNAQQQAAKALTQPLAS

The molecules below were run on endogenous genome targets (ACTB, HSP90AA1) (assay: Arrayed SSAP library screening, mKate knock-in assay (editing efficiency)). Conditions: fold over negative control (Flag_HA); average of HSP90 and ACTB; 3 days after transfection.
Type: cell-based
Protocol: Arrayed SSAP library screening on endogenous genome targets (ACTB. HSP90AA1) using mKate knock-in assay.
SSAP-encoding plasmids were purified and quantified.
(§1) Each SSAP encoding plasmid was tested in duplicate, including a negative control (same plasmid encoding Flag_HA which is not expected to promote gene editing). Transfections were in 96-well plates and transfection efficiency was estimated to be 50%.
(§2) Three days after transfection, mKate positive cells and cell viability were quantified across all replicates, along with positive (original RecT SSAP) and negative (Flag-HA control protein) controls. […] At the same time, the cell viability was measured by live cell counts via flow cytometry, to help quantify the fitness effect of SSAP on mammalian cells.
(§3) SSAP proteins are identified by Uniparc deposit number and SEQ ID NO. Alignment numbers correspond to SSAPs in FIGS. 58, 59, and 60.

Row | Molecule | Editing Efficiency (Normalized, Average, two targets)
1 | B1 | 4.616
2 | B2 | 5.75
3 | B3 | 6.574
4 | B4 | 5.204

Same assay, conditions: percent of mKate knock-in; average of HSP90 and ACTB; 3 days after transfection

Row | Molecule | Editing Efficiency (Absolute, Average, two targets)
5 | B1 | 11.4625
6 | B2 | 14.25
7 | B3 | 16.25
8 | B4 | 12.9225

The molecules below were run on mammalian cells (assay: Arrayed SSAP library screening, cell viability by live cell counts via flow cytometry). Conditions: not given.
Type: cell-based
Protocol: as §1, §2, §3

Row | Molecule | Cell Viability (Average, two targets)
9 | B1 | 1.088
10 | B2 | 1.237
11 | B3 | 1.159
12 | B4 | 1.131

What follows are molecules tested on gene editing with Cas9 (assay: Screen of 322 new SSAP proteins, gene editing activity with Cas9 (Table 5)). Conditions: not given.
Type: cell-based
Parameters: Cas9 with SSAP activity: scale not given here
Summary of the method: (§4)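 First, 322 new single-strand annealing proteins are identified from sequences. Next they are synthesized. Finally each is assayed for editing in combination with Cas9 and, separately, dCas9.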

Row | Molecule | Cas9 with SSAP activity
13 | B5 | 1.340
14 | B6 | −6.903
15 | B7 | −0.806
16 | B8 | −4.226
17 | B9 | 1.588
18 | B10 | 0.754
19 | B11 | 0.839
20 | B12 | 0.813

Same assay, conditions: normalized

Row | Molecule | Cas9 with SSAP activity (normalized)
21 | B5 | 0.516
22 | B6 | −1.680
23 | B7 | −0.733
24 | B8 | −0.744
25 | B9 | 1.090
26 | B10 | 0.207
27 | B11 | 0.359
28 | B12 | 0.564

What follows are molecules tested on gene editing with Cas9 and dCas9 (assay: Screen of 322 new SSAP proteins, activity across all experiments (Cas9 and dCas9, Table 5)). Conditions: not given.
Type: cell-based
Parameters: scale not given here
Summary of the method: as §4

Row | Molecule | Activity across all experiments
29 | B5 | 1.811
30 | B6 | −4.836
31 | B7 | −1.758
32 | B8 | −3.455
33 | B9 | −0.583
34 | B10 | −0.971
35 | B11 | −0.998
36 | B12 | −0.927

The molecules below were run on gene editing with dCas9 (assay: Screen of 322 new SSAP proteins, gene editing activity with dCas9 (Table 5)). Conditions: not given.
Type: cell-based
Parameters: dCas9 with SSAP activity: scale not given here
Summary of the method: as §4

Row | Molecule | dCas9 with SSAP activity
37 | B5 | 2.282
38 | B6 | −2.770
39 | B7 | −2.710
40 | B8 | −2.685
41 | B9 | −2.755
42 | B10 | −2.696
43 | B11 | −2.835
44 | B12 | −2.667

Same assay, conditions: normalized

Row | Molecule | dCas9 with SSAP activity (normalized)
45 | B5 | 1.278
46 | B6 | −0.443
47 | B7 | −0.380
48 | B8 | −0.421
49 | B9 | −1.023
50 | B10 | −0.444
51 | B11 | −0.450
52 | B12 | −0.795
